# Assays:
# [1] = system: HeLa Tet3G cells; assay: Cell proliferation assays: rescue of the proliferation defect induced by respiratory chain inhibitors (nuclei counting); format: cell-based, human; details: for rescue of piericidin induced proliferation defect by supplementation: HeLa Tet3G Luciferase cells, compound added to medium, 3 days
# Procedure: Five hundred HeLa Tet3G NDI1, Luciferase, LbNOX or mitoLbNOX cells were seeded in 200 μl of DMEM (DMEM (US Biological, D9800), 3.7 g/L NaHCO3, 10% dialyzed FBS (Life Technologies, 26400-044)) per well in a black 96-well plate with clear bottom (Corning, 3904). Twenty four hours after seeding, media was exchanged to DMEM without pyruvate (DMEM (US Biological, D9802), 15.9 mg/L phenol red, 3.7 g/L NaHCO3, 10% dialyzed FBS (Life Technologies, 26400-044))±10 μg/ml chloramphenicol±30 ng/ml ethidium bromide±1 mM pyruvate±300 ng/ml doxycycline. After 0, 2, 3, 4, 5 and 6 days, media was aspirated and cells were fixed by adding 100 μl of 4% paraformaldehyde in PBS and incubating at room temperature for at least 30 min. Paraformaldehyde solution was aspirated and cells were stained with 200 μl of 1 μg/ml Hoechst 33345 in PBS. Plates were covered with sealing aluminum foil and stored at 4° C. before counting cells in each well with Molecular Dynamics IMAGEXPRESS® Ultra (see “Nuclei counting using Molecular Devices IMAGEXPRESS® Ultra,” below).
# One thousand HeLa Tet3G NDI1, Luciferase, LbNOX or mitoLbNOX cells were seeded in 200 μl of DMEM (DMEM (US Biological, D9800), 3.7 g/L NaHCO3, 10% dialyzed FBS (Life Technologies, 26400-044)) per well in a black 96-well plate with clear bottom (Corning, 3904). Twenty four hours after seeding, 10 μl of 6 μg/ml doxycycline (300 ng/ml final concentration) or water was added to each well. Twenty four hours after addition of doxycycline, media was exchanged to DMEM without pyruvate (DMEM (US Biological, D9802), 15.9 mg/L phenol red, 3.7 g/L NaHCO3, 10% dialyzed FBS (Life Technologies, 26400-044)), ±1 μM piericidin, ±1 μM antimycin, ±1 mM pyruvate and ±300 ng/ml doxycycline. After 0, 1, 2, 3 and 4 days, media was aspirated and cells were fixed by adding 100 μl of 4% paraformaldehyde in PBS and incubating at room temperature for at least 30 min. Paraformaldehyde solution was aspirated and cells were stained with 200 μl of 1 μg/ml Hoechst 33345. Plates were covered with sealing aluminum foil and stored at 4° C. before counting cells in each well with Molecular Dynamics IMAGEXPRESS® Ultra (see “Nuclei counting using Molecular Devices IMAGEXPRESS® Ultra,” below).
# Two thousand HeLa Tet3G Luciferase cells were seeded in 200 μl of DMEM (DMEM (US Biological, D9800), 3.7 g/L NaHCO3, 10% dialyzed FBS (Life Technologies, 26400-044)) per well in a black 96-well plate with clear bottom (Corning, 3904). Twenty four hours after seeding, media was exchanged to DMEM without pyruvate (DMEM (US Biological, D9802), 15.9 mg/L phenol red, 3.7 g/L NaHCO3, 10% dialyzed FBS (Life Technologies, 26400-044))±1 μM piericidin, ±indicated concentrations of pyruvate, lactate, malate, oxaloacetate, nicotinamide mononucleotide ([…]) or PJ34. After 3 days, media was aspirated and cells were fixed by adding 100 μl of 4% paraformaldehyde in PBS and incubating at room temperature for at least 30 min. Paraformaldehyde solution was aspirated and cells were stained with 200 μl of 1 μg/ml Hoechst 33345. Plates were covered with sealing aluminum foil and stored at 4° C. before counting cells in each well with Molecular Dynamics IMAGEXPRESS® Ultra (see “Nuclei counting using Molecular Devices IMAGEXPRESS® Ultra,” below).
# Images of 96-well plates with fixed cells stained with Hoechst 33345 were collected using Molecular Devices IMAGEXPRESS® Micro XLS. Four images were taken to cover the whole well. Images were analyzed and nuclei number per well was counted using CellProfiler 2.0 image analysis software (Carpenter, et al., Genome Biol., 7:R100, 2006; and Kamentsky, et al., Bioinformatics, 27:1179, 2011). […]
# [2] = system: HeLa Tet3G cells; assay: Glucose concentration-dependent cell survival; format: cell-based, human; details: 1 μM piericidin, 24 hours
# Procedure: Images of 96-well plates with fixed cells stained with Hoechst 33345 were collected using Molecular Devices IMAGEXPRESS® Micro XLS. Four images were taken to cover the whole well. Images were analyzed and nuclei number per well was counted using CellProfiler 2.0 image analysis software (Carpenter, et al., Genome Biol., 7:R100, 2006; and Kamentsky, et al., Bioinformatics, 27:1179, 2011).
# Ten thousand HeLa Tet3G NDI1, Luciferase, LbNOX or mitoLbNOX cells were seeded in 200 μl of DMEM (DMEM (US Biological, D9800), 3.7 g/L NaHCO3, 10% dialyzed FBS (Life Technologies, 26400-044)) per well of a black 96-well plate with clear bottom (Corning, 3904). Twenty four hours after seeding, 10 μl of 6 μg/ml doxycycline (300 ng/ml final concentration) or water was added to each well. Twenty four hours after addition of doxycycline, media was exchanged to DMEM (DMEM (US Biological, D9800), 3.7 g/L NaHCO3, 10% dialyzed FBS (Life Technologies, 26400-044))±300 ng/ml doxycycline. […] After 24 hours, media was aspirated and cells were fixed by adding 100 μl of 4% paraformaldehyde in PBS and incubating at room temperature for at least 30 min. Paraformaldehyde solution was aspirated and cells were stained with 200 μl of 1 μg/ml Hoechst 33345. Plates were covered with sealing aluminum foil and stored at 4° C. before counting cells in each well with Molecular Dynamics IMAGEXPRESS® Ultra (see “Nuclei counting using Molecular Devices IMAGEXPRESS® Ultra,” above).
molecule,measurement,setting,value
"CN(C)CC(=O)Nc1ccc2[nH]c(=O)c3ccccc3c2c1 [PJ34, reference compound]",rescue of piericidin induced proliferation defect by supplementation,[1]; 1 μM piericidin,did not rescue
"NC(=O)c1ccc[n+]([C@@H]2O[C@H](COP(=O)([O-])O)[C@@H](O)[C@H]2O)c1 [PMN, nicotinamide mononucleotide, reference compound]",rescue of piericidin induced proliferation defect by supplementation,[1]; 1 μM piericidin,did not rescue
"CC(O)C(=O)O (stereo not drawn) [lactate, reference compound]",rescue of piericidin induced proliferation defect by supplementation,[1]; 1 μM piericidin,do not
"O=C(O)CC(O)C(=O)O (stereo not drawn) [malate, reference compound]",rescue of piericidin induced proliferation defect by supplementation,[1]; 1 μM piericidin,do not
"Ndi1: yeast (S. cerevisiae) NADH dehydrogenase Ndi1 protein, positive control (protein, UniProt P32340 27-513, looked up) Rotenone-insensitive …: STGVENSGAGPTSFKTMKVIDPQHSDKPNVLILGSGWGAISFLKHIDTKKYNVSIISPRSYFLFTPLLPSAPVGTVDEKSIIEPIVNFALKKKGNVTYYEAEATSINPDRNTVTIKSLSAVSQLYQPENHLGLHQAEPAEIKYDYLISAVGAEPNTFGIPGVTDYGHFLKEIPNSLEIRRTFAANLEKANLLPKGDPERRRLLSIVVVGGGPTGVEAAGELQDYVHQDLRKFLPALAEEVQIHLVEALPIVLNMFEKKLSSYAQSHLENTSIKVHLRTAVAKVEEKQLLAKTKHEDGKITEETIPYGTLIWATGNKARPVITDLFKKIPEQNSSKRGLAVNDFLQVKGSNNIFAIGDNAFAGLPPTAQVAHQEAEYLAKNFDKMAQIPNFQKNLSSRKDKIDLLFEENNFKPFKYNDLGALAYLGSERAIATIRSGKRTFYTGGGLMTFYLWRILYLSMILSARSRLKVFFDWIKLAFFKRDFFKGL",rescue of proliferation defect caused by ethidium bromide,"[1]; 30 ng/ml ethidium bromide, no pyruvate, doxycycline-inducible expression",not
same,rescue of proliferation defect caused by antimycin,"[1]; 1 μM antimycin, no pyruvate, doxycycline-inducible expression",not
same,rescue of proliferation defect caused by piericidin,"[1]; 1 μM piericidin, no pyruvate, doxycycline-inducible expression",rescued
same,rescue of proliferation defect caused by chloramphenicol,"[1]; 10 μg/ml chloramphenicol, no pyruvate, doxycycline-inducible expression",not
same,effect on decrease in cell number (cell survival) at low glucose concentrations in the presence of piericidin,[2],rescued
